In article PMC5454113:

How the values were obtained:
[1] = target: activated factor X (FXa) (UniProt P00742); test: enzyme inhibition kinetics (chromogenic substrate); as a1, with 100 nM protein S, no FV
[2] = target: activated factor X (FXa) (UniProt P00742); test: enzyme inhibition kinetics (chromogenic substrate); as a1, with 30 nM recombinant FV, no protein S
[3] = target: activated factor X (FXa) (UniProt P00742); test: enzyme inhibition kinetics (chromogenic substrate); as a1, with 30 nM recombinant FV and 100 nM protein S
[4] = target: activated factor X (FXa) (UniProt P00742); test: enzyme inhibition kinetics (chromogenic substrate); FXa 0.3 nM, TFPI 0–16 nM, S-2765 200 uM, 25 uM phospholipids (DOPC/DOPS/DOPE 60:20:20), 5 mM CaCl2, 25 °C, 60 min; no protein S, no FV; Ki = encounter complex, Ki* = overall dissociation constant

Sequence of UniProt P00742 (P00742 41-179, chain 1 of 2): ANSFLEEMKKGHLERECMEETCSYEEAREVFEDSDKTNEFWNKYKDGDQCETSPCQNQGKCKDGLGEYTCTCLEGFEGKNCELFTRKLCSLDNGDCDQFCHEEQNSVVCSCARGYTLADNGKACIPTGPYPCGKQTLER
Sequence of UniProt P00742 (P00742 235-488, chain 2 of 2): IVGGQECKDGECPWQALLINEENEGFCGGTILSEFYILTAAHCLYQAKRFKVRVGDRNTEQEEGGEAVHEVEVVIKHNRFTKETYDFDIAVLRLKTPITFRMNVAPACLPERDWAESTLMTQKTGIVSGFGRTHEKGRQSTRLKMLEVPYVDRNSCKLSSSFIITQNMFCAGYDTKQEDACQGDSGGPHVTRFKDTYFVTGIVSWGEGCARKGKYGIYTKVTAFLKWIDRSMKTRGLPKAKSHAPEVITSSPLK

## TFPI ΔCT (aa 1–249) (domain or fragment)
[1]
  Ki: 47 pM
  Ki of the encounter complex (first step): 4570 pM
[2]
  Ki: 310 pM
  Ki of the encounter complex (first step): 7410 pM
[3]
  Ki: 28 pM
  Ki of the encounter complex (first step): 1610 pM
[4]
  Ki: 50 pM
  Ki of the encounter complex (first step): 5690 pM
